Data reported in patent US20230151105A1 (HUTCHISON MEDIPHARMA, published 2023).
Positions count from the first letter of the chain named. In names and notes the source's numbering stands. Blank lines part the entries; values can stand above or below the binder they belong to.

How the values were obtained:
[1] = target: T1, human OX40 expressed on the cell surface (human, UniProt P43489 29-277); experiment: cell-based or functional assay
T1 sequence (looked up): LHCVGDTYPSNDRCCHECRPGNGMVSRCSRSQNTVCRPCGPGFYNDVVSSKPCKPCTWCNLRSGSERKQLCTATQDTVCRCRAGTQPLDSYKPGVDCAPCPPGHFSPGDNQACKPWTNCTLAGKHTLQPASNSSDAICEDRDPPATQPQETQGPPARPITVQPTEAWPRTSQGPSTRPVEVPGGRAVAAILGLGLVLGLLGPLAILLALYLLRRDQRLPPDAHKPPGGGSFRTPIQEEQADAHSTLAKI

[2] = target: T1, human OX40 expressed on the cell surface; experiment: cell-based or functional assay; remark: listed apart in the source
[3] = target: T1, human OX40 expressed on the cell surface; experiment: FACS on activated human CD4+ T cells
Excerpt: (§1) Primary human PBMC were isolated from whole blood obtained from healthy donors through density gradient centrifugation with Ficoll-Paque PLUS (GE Healthcare, Cat 17-1440-02). After centrifuge, the cells in the middle layer were collected and washed 3 times with PBS to obtain PBMC. Then, human T cells were isolated with Pan T Cell Isolation Kit (Miltenyi biotec, Cat 130-096-535) by magnetic beads isolation method according to the protocol recommended by the instructions. T cells were resuspended in RPMI 1640 (containing 10% FBS and penicillin/streptomycin bi-antibiotics) medium, and PHA-L and IL-2 (or Con-A and hIL-2) were added for 2-day stimulation to induce the expression of OX40 from the T cells. The activated T cells were washed once with PBS containing 2% FBS, the serially diluted OX40 antibodies were added, and incubated at 4° C. for 30 minutes. The cells were washed twice with PBS containing 2% FBS, PE-labeled anti-human IgG secondary antibody (Biolegend, Cat 409304) (or PE-labeled anti-mouse IgG secondary antibody (Biolegend, Cat 405307)) and APC-CY7 labeled antibody human CD4 antibody (Biolegend, Cat 300518) were added. The binding of OX40 antibody on the surface of CD4 positive T cells was detected by BD Cantoll flow cytometry. A curve was fitted according to the median fluorescence intensity value, and EC₅₀ was calculated.

[4] = target: T1, human OX40 expressed on the cell surface; experiment: FACS on activated human T cells
Excerpt: as §1
According to the detection method described in the preceding Example 1.2, FACS was used to analyze the binding activities of humanized antibodies to OX40 on activated human T cells.

[5] = target: T2, recombinant human OX40-His protein (R & D Systems, Cat 9969-OX) (human, UniProt P43489 29-214); experiment: ELISA, human OX40-His coated, anti-mouse IgG-HRP detection
T2 construct: extracellular domain; Bought protein; also called human OX40 protein; human OX40-His fusion protein; not shown: His tag
T2 sequence (looked up): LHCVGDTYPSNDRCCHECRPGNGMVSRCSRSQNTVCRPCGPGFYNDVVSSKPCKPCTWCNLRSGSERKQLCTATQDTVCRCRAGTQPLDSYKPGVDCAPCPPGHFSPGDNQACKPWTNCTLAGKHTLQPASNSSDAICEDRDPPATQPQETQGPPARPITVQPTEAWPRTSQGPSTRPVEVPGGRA
Experimental: The recombinant human OX40-His (R & D, Cat 9969-OX) was coated onto 96-well plates. After blocking, serially diluted mouse serum or antibodies were added and incubated. After washing plates with PBS containing 0.5% Tween20, HRP-labeled anti-mouse IgG secondary antibody was added for incubation, and the plates were developed with […], and the OD450 value was read via a microplate reader.

[6] = target: T1, human OX40 expressed on the cell surface; experiment: cell-based or functional assay; remark: listed apart in the source
[7] = target: T2, recombinant human OX40-His protein (R & …); experiment: SPR (Biacore), antibody captured on anti-human Fc CM5 chip, human OX40-His as analyte, 1:1 Langmuir
Excerpt: Biacore is used to determine the binding kinetic parameters by measuring surface plasmon resonance (SPR). This technology was used to detect the microscopic rate constants of the binding (kₐ) and dissociation (kd) of an antibody and an antigen. Based on the kₐ and the kd values, the affinity value of the antibody to the antigen is obtained. Both Biacore instrument and reagents were purchased from GE Healthcare. In particular, anti-human Fc antibody was immobilized on a CM5 sensor chip. The supernatants containing expressed antibody or the purified antibodies were diluted in a mobile phase buffer (10 mM HEPES, 150 mM NaCl, 3 mM EDTA, 0.05% Tween-20, pH 7.4), and flowed through the CM5 chip coated with anti-human Fc antibody. Then the serially diluted human OX40-His fusion proteins flowed through the detection chip to measure the binding of the antigen to the antibody, and then the mobile phase buffer flowed through the chip to detect the dissociation of the antigen from the antibody. The binding and dissociation signal data of the antigen and the antibody were collected at different concentrations, and fitted to the 1:1 Langmuir model to calculate the affinity between the antigen and the antibody.

[8] = target: T3, recombinant OX40-Fc protein (R & D, Cat 3388-OX) (human, UniProt P43489 29-214); experiment: blocking ELISA: OX40-Fc coated, antibody titrated, competitor OX40L at 50 ng/ml
T3 construct: extracellular domain; also called OX40 (R & D systems, Cat 3388-OX); not shown: Fc tag
T3 sequence (looked up): T2 sequence (looked up)

Agonistic activity on T cells, IFNγ release, EC50 [1]: 7.1 nM
maximum IFNγ concentration [1]: 27400 ng/mL
Enhancement of IFNγ production by activated human T cells (ELISA), EC50 [2]: 14.7 nM
Ratio of IFNγ maximum effect to background (in fold) [2]: 9.4 fold
EC50 [3]: 1.3 nM
EC50 [4]: 6.23 nM
B1: OX40mAb24 (antibody, V domains shown)
VH: QVQLQESGPGLVKPSQTLSLTCAVYGGSFSSGYWNWIRKHPGKGLEYIGYISYNGITYHNPSLKSRITINRDTSKNQYSLQLNSVTPEDTAVYYCARYKYDYDGGHAMDYWGQGTLVTVSS
VL: DIQMTQSPSSLSASVGDRVTITCRASQDISNYLNWYQQKPGKAPKLLIYYTSKLHSGVPSRFSGSGSGTDYTLTISSLQPEDFATYYCQQGSALPWTFGQGTKVEIKR

Enhancement of IFNγ production by activated human T cells (ELISA), EC50 [2]: 1.4 nM
Ratio of IFNγ maximum effect to background (in fold) [2]: 7.6 fold
EC50 [5]: 0.276 nM
EC50 [3]: 0.8 nM
B2: hybridoma-derived antibody 38E11 (antibody, V domains shown)
VH: QVQLQQPGAELVRPGSSVQLSCKASGYTFTSYWVDWVKQRPGQGLQWIGNIYPSDSETHYNQKFKDKATLTVDKSSSTAYMQLSSLTSEDSAVYYCARSYGYYGTWFAYWGQGTLVTVSA
VL: DIVLTQSPASLAVSLGQRATISCRASESVDSSGNSFMHWYQQKPGQPPKLLIYRASNLESGIPARFSGSGSRTDFTLTINPVEADDVATYYCQQSNEDPWTFGGGTKLEIK
notes: Murine antibody purified from hybridoma supernatant by protein A

Agonistic activity on T cells, IFNγ release, EC50 [1]: 1.7 nM
maximum IFNγ concentration [1]: 22500 ng/mL
EC50 [4]: 3.48 nM
B8: Hu38E11-v3 (antibody, human IgG1, V domains shown)
VH: QVQLVQSGAEVKKPGASVKVSCKASGYTFTSYWVDWVRQAPGQGLEWMGNIYPSDSETHYNQKFKDRVTMTRDTSTSTVYMELSSLRSEDTAVYYCARSYGYYGTWFAYWGQGTLVTVSS
VL: DIVMTQSPDSLAVSLGERATINCRASESVDSSGNSFMHWYQQKPGQPPKLLIYRASNLESGIPDRFSGSGSGTDFTLTISSVQAEDVAVYYCQQSNEDPWTFGGGTKLEIK

Agonistic activity on T cells, IFNγ release, EC50 [1]: 0.9 nM
maximum IFNγ concentration [1]: 21700 ng/mL
EC50 [4]: 3.02 nM
B9: Hu38E11-v4 (antibody, human IgG1, V domains shown)
VH: B8 VH with M48I, R72V, V79A, T91S
VL: B8 VL with V82L

expression of the luciferase reporter gene under the control of NF-κB, EC50 [6]: 0.7 nM
Agonistic activity on T cells, IFNγ release, EC50 [1]: 2.4 nM
maximum IFNγ concentration [1]: 24800 ng/mL
Kd [7]: 2.36 nM
koff [7]: 0.000394 s⁻¹
kon [7]: 167000 M⁻¹ s⁻¹
EC50 [4]: 4.56 nM
B10: humanized 38E11 antibody Hu38E11 (IgG1) (antibody)
heavy: not shown
VL: B8 VL with I62V, V82L

The next lines start with the binder.

B3: 11D4 (antibody, V domains shown)
VH: EVQLVESGGGLVQPGGSLRLSCAASGFTFSSYSMNWVRQAPGKGLEWVSYISSSSSTIDYADSVKGRFTISRDNAKNSLYLQMNSLRDEDTAVYYCARESGWYLFDYWGQGTLVTVSS
VL: DIQMTQSPSSLSASVGDRVTITCRASQGISSWLAWYQQKPEKAPKSLIYAASSLQSGVPSRFSGSGSGTDFTLTISSLQPEDFATYYCQQYNSYPPTFGGGTKVEIKR
T-cell agonistic activity, IFNγ released by T cells, EC50 [6]: 5.3 nM
Kd [7]: 2.51 nM
koff [7]: 0.000435 s⁻¹
kon [7]: 173000 M⁻¹ s⁻¹
Enhancement of IFNγ production by activated human T cells (ELISA), EC50 [2]: 8 nM
Ratio of IFNγ maximum effect to background (in fold) [2]: 5.6 fold
EC50 [3]: 0.4 nM

B4: Hu38E11-v1 (antibody, human IgG1, V domains shown)
VH: B8 VH with M48I, R72V
VL: B8 VL
notes: also called Hu38E11-vl
Agonistic activity on T cells, IFNγ release, EC50 [1]: 0.7 nM
maximum IFNγ concentration [1]: 21600 ng/mL
EC50 [4]: 5.03 nM

B5: Hu38E11 (IgG2) (antibody)
heavy: QVQLVQSGAEVKKPGASVKVSCKASGYTFTSYWVDWVRQAPGQGLEWMGNIYPSDSETHYNQKFKDRVTMTRDTSTSTVYMELSSLRSEDTAVYYCARSYGYYGTWFAYWGQGTLVTVSSASTKGPSVFPLAPCSRSTSESTAALGCLVKDYFPEPVTVSWNSGALTSGVHTFPAVLQSSGLYSLSSVVTVPSSNFGTQTYTCNVDHKPSNTKVDKTVERKCCVECPPCPAPPVAGPSVFLFPPKPKDTLMISRTPEVTCVVVDVSHEDPEVQFNWYVDGVEVHNAKTKPREEQFNSTFRVVSVLTVVHQDWLNGKEYKCKVSNKGLPAPIEKTISKTKGQPREPQVYTLPPSREEMTKNQVSLTCLVKGFYPSDIAVEWESNGQPENNYKTTPPMLDSDGSFFLYSKLTVDKSRWQQGNVFSCSVMHEALHNHYTQKSLSLSPGK
VL: B8 VL with I62V, V82L
T-cell agonistic activity, IFNγ released by T cells, EC50 [6]: 1.6 nM

B6: Hu38E11 (IgG1 N297A) (antibody, name in EU numbering)
heavy: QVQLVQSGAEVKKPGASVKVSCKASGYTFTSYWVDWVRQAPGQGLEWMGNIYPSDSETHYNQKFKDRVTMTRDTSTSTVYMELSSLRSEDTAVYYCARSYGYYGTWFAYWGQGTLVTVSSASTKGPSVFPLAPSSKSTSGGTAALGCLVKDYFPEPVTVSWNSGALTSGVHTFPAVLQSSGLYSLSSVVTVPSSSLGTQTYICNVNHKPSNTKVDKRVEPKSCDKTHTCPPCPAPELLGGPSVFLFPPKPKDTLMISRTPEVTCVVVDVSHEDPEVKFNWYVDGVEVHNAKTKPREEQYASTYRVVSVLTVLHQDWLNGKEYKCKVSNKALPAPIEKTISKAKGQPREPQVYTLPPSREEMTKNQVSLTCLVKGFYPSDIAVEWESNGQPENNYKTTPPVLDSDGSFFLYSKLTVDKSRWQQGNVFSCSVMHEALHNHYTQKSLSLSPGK
VL: B8 VL with I62V, V82L
notes: Hu38E11 variable regions with a human IgG1 constant region carrying N297A; also called Hu38E11 (hIgG1 N297A)
blocking of OX40L-mediated T cell activation, IFNγ secretion, IC50 [6]: 0.3 nM
inhibition of the expression of luciferase reporter gene under the control of NF-κB, IC50 [6]: 0.2 nM
IC50 [8]: ~0.3 nM

B7: Hu38E11-v2 (antibody, human IgG1, V domains shown)
VH: B8 VH with M48I, R72V, V79A, T91S
VL: B8 VL with I62V, V82L
Agonistic activity on T cells, IFNγ release, EC50 [1]: 1 nM
maximum IFNγ concentration [1]: 22500 ng/mL
EC50 [4]: 3.35 nM
